# Source: US6713269B2, “Methods for identifying potential therapeutic agents for treatment of osteoporosis using mitogenic indices” (co.don Aktiengesellschaft, priority 1995, dated 2004)
# B1: TGF-β2: protein growth factor 1 tested for mitogenic effect on osteoblast cells (protein, UniProt P61812 303-414, looked up)
# Transforming growth factor …: ALDAAYCFRNVQDNCCLRPLYIDFKRDLGWKWIHEPKGYNANFCAGACPYLWSSDTQHSRVLSLYNTINPEASASPCCVSQDLEPLTILYYIGKTPKIEQLSNMIVKSCKCS
# Tested on: human osteoblast precursor cells
# Test: Cell proliferation rate under the influence of growth factors, using bromodeoxyuridine incorporation (BrdU incorporation)
# Assay type: cell-based
# Details: for Absorbance mean value: 54 h incubation + 18 h BrdU labelling, OD at 405 nm
# Protocol: 3,000 osteoblastic cells from fractions t1 to 2 up to the second passage, recovered from osteoporotic patients (OP cells), per well of a 96-well microwell plate were incubated in the presence of 10% FCS and 10% inactivated human control serum in a cell culture medium (α-MEM and HAM-S F12 medium […]) for 48 h, 120 h and 192 h. In parallel, 3,000 osteoblastic cells from non-osteoporotic patients were incubated under the same conditions. The number of intact cells was determined by means of trypan blue staining and counting in a counting chamber. 4. Determination of the cell proliferation rate under the influence of the three growth factors 1, 2 and 3 using bromodeoxyuridine incorporation (BrdU incorporation) Growth factor 1 =TGF-β2
# Cells from fraction 1 and/or 2 of each punched-out bone piece up to the 2nd passage were used in the proliferation test.
# 3 ×10^3 cells from the first and/or second passage per well of a 96-well plate and 200 μl of medium were used.
# The cells were cultivated for three days under the conditions previously described and subsequently cultivated further for one day in medium with no serum until subconfluence was reached.
# Thereafter, the three growth factors 1, 2 and 3 were added to the cells at four different final concentrations (100, 10, 1, and 0.1 ng/ml medium).
# Cells in a medium containing 10% FKS and in a medium containing 5% Ultroser served as controls.
# Triplets were set up for all concentrations and controls.
# Six wells including cells, to which no bromodeoxyuridine had been added during the proliferation test served as blank controls.
# After 54 hours of incubation with the growth factors, the proliferation test (5-Bromo-2′-deoxyuridine Labeling and Detection Kit III by Boehringer Mannheim) was initiated by adding 20 μl of labelling solution diluted 1:90 in 1% BSA medium and subsequent incubation for 18 hours.
# The proliferation test was conducted according to the manufacturer's instructions.
# Evaluation of the proliferation test was effected by measuring the optical density (OD) at 405 nm in an ELISA reader. After 60 minutes of color development, the absorbance was measured 12 times at intervals of 5 minutes.
molecule,measurement,setting,value
B1,Absorbance mean value,0.1 ng/ml medium,0.150
same,Absorbance mean value,1 ng/ml medium,0.170
same,Absorbance mean value,10 ng/ml medium,0.190
same,Absorbance mean value,100 ng/ml medium,0.190
same,"mitogenic effect (stimulative capability of cell proliferation, dose-effect curves)","osteoblast cells from osteoporosis patients, FIG. 5",significant dose-dependent mitogenic effect
